The text below walks through data of the DeepSol protein solubility set.

This data set can be described thus: soluble on expression in E. coli; label from the status in PepcDB or PDB records.
Take “GSGYVFGGFIRADIKKWYIQPNIYYMYNSSSIDVNQTSTDVKSKSVNGDVLLGYRFFKFTDLTYLRLFAGPGYSNINTLKYDSCTSDYSTDNILLNAGVGLDFWKLTFDLKYQRGLTDIDKSSNTMHTSLFMLTAGFKIL”: the “soluble on expression in E. coli” value is listed as “not soluble”. For the sequence “MRIWSSEHIFDHEWETVAQAAFRKYPNPLNRSITGIDVVKQTLEAGKILTERIIQSHFSIPSWATKLTGFSGTQYSHEYTVIDPTRKEFSLTTRNLNGSSFLRVDEKLTYTPAHEDPNKTILKQDVIVTITLPAFADYCEKTFLSIYSQNANKGRQGVEWVIDHLKKEYEAISTKVSSEVHEMSEKVLRSFGTTSSSSPKPSTPPPPST”, the “soluble on expression in E. coli” value was “not soluble”. As to “MGSDKIHHHHHHMNKLNFKGSVMLNPTPVVLVTSKDKSQNLNVFTVGWVSTVCTKDPIIAMGIRPERLSYQYIKESCECVINLPTTSMVKIVDYCGVVSGRRVDKIKHFSLPLNDGVSISTPSLENCPVALECKVKSVTPLGTHDLFLLQVLNVKIDETLLDKNNKICFNKANLMCYNHGEYYGLNSKPIGSFGFSVKKKTKKIHRRKKGD”, the “soluble on expression in E. coli” value is reported as “not soluble”. As for “MQNYSVSVTSDRPAPFQQITIPLADGTVLHARLWLPQTPLADRVPLVLEWIPYRQSDGTALADSMMHGYFAEQGIAAARVDIRGSGNSDGLLHDEYLKQEQDDACEVIAWFARQDWCNGNVGLIGISWGGFAGLQIAARRPPALKCIITACSTDNRYTDDVHYMGGALLSDGMQWGSGLFAQLGRPADPKHVGDRWREMWMNRLEGIKEPPLATWMQHTTYDDFWKHGSVCEDYDEIQCAVWAVGGWVDGYTDPILRLMEKLSVPKKALIGPWTHMYPTWGQPGPQIGFLQEAMRWWRHWLMDEDTGIMDEPQLTLWLGKDPKPDTRAPDIGGRWIGLP”, the “soluble on expression in E. coli” value was “not soluble”. Regarding “MDGKRVWLSDDELTRFIEQAETPHQRLAFLLAGRVGLRRSEIIEVCPQDLVDGPTGDHIRVWESYAKRDKYREPPVPQEVVTIAETLAYQQDDDEPLLDVAGSTVYRWVRRAADELEEETGDRGWQYLDVHDLRRTWGTYLLEQGVIPSVVMSFGGWEDWDTFRKHYLGLEHHHHHH”, the “soluble on expression in E. coli” value was “not soluble”. To “MSLNIVSMAREASSHKNSGKKKAIVKFIIRTLLHYSYIKKMNDNFAHDERKMLFKKQPNFLTKCITPYLRNGLSRQEIIDILVKHYDWFEYKFSTDARHQIYDDVLTLYKLEIDEQDYLINLSFDRNSRKEGELTLTLTDSKYNKYYVLAFTVVDNDIYIGCMQGGANDNGFSKLFTKSIYGLRPKSFMVETLRLLAVNLNINHIYAVKNSAHIYTAKRYGKKSKMIGLDYDRLWKEHNGESHNDYFYVLPIKSERKAMEDIKRPKRKMYRERYAWLDNYDKELKNTLDYICNEGHHHHHH” belongs “not soluble”; to “MSVVSPDPAPVPHDPQRRALLRWLVGGGALAGGLGVSAVAQGYRFGVTHEQWNLVGLTRPVRLALLTDLHYGLYIGAGSVRRWVDATLAECPDLILLGGDLVDSHFDAAARPQQTAALLAELGRLRAPLGVYAVWGNHDYGSFGRSISQSPEASRADWAARRDALRAGLAGQGVTVLLNEGRSLRDDLWLGGVDDLRMGEADSVAALRGSGTRATVLLAHNPDVLLRLRSAPGLVLSGHTHGGQVRLPLLGALKVPADPRFTMGWVRGPQGIPAYVSRGLGMSGLPVRNLCEPEITLLTLLPPGALEHHHHHH”, “not soluble”. Under “QRGIINQRRERLVAADLMGAATVTASTVKYIVEKANRIASGAPATVAEGTKKPYVKYADFDVVTESLSKVAALAKFTDEMIEDYDFVASWINNNLVYDLSVVEEKQLINGDGRGSNIKGLLNREGIQTHKSAKQADWFNDLFKAKNKVSQATNLEADGIMINPVNYEALRLTKDGNGQYIAGGPFQGQYGNGNILIDPPLWGIKTVVSNAVPAGTAIVGAFRQGATVLRKGGVRVDSANTNADDFENNLVTLRAEERLGLMVPLPAAFVKVTLEETTEEL” stands “not soluble”; under “MGSDKIHHHHHHMRRFLILFVLLVAGCTGVDPNNPQYRAFVAVAEDVEPVGEAQCRSKDPERNCDFQIQLDLNPSAPANAFQTVDRSGRPVVIFTRSMLDSFRNPDEMAFVMGHEMAHHILEHLDQQRINAVKGAVFLGELVSLEGGTPEQVANAQYVGAVVGSRSYSKAFELEADALGTLITYQAGYRPSVGVKFFEEIPDPGDVFLGTHPANPDRIRIVQRTIRKYGLN”, “not soluble”.

With “MDEDLTPIPSLTPDIQKFRIYGRVTYFQENKNGNGIHFLLTDSLGCSIKCIVTVEAVVKHCKDQLKLGQPCYVRGGRVDYHDKRYPNRTGHDCVIFNNNIAEIQITTVATNFVTPIATLNAPKIIYKVHGMITQRGKYSKKEVFCFVITDDKGDSVNVAAFCEFADWLYENLKEKQWYYLYCGLIEKVCKPDDQKEPNNVIILHNKCQIETPSDPSVADPFAELDDLNCTINKMKL”, the “soluble on expression in E. coli” value is “not soluble”. To “MRGSHHHHHHGMASMTGGNNMGRDLYDDDDKDPGRRMMHNSNADDAALTTDVVVVGGGPVGLMLAGELRAGGVGALVLEKLVEPVGHDRAGALHIRTVETLDLRGLLDRFLEGTQVAKGLPFAGIFTQGLDFGLVDTRHPYTGLVPQSRTEALLAEHAREAGAEIPRGHEVTRLRQDAEAVEVTVAGPSGPYPVRARYGVGCDGGRSTVRRLAADRFPGTEATVRALIGYVTTPEREVPRRWERTPDGILVLAFPPEGGLGPGWSSSSTGHSPAADEGPVTLEDLGAAVARVRGTPLTLTEPVSWLSRFGDASRQAKRYRSGRVLLAGDAAHVHFPIGGQGLNTGLQDAVNLGWKLAARVRGWGSEELLDTYHDERHPVAERVLLNTRAQLALMRPDEQHTTPLRGFVEELLGTDEVNRYFTGMITGTDVRYATFAPAASARPHPWPGRFAGGLVLSRPSGEPVPVAELLRSARPLLLDLAGRADLREATRPWSDRVSVVAGEATVEPPAQALLVRPDGYVAWAGSPAATADELRASLARWFGPPANREPVGHQERAGRRGRPLSALKPE” belongs “soluble”; to “MTNIERLERCADIMRRRWIYDPEAGLLFSRETKDVIKGSMTNKGHLVVTVHEGKFKVTLTYQKACYVYTYGAYDETLYEVHHVNLNKQDNRIKNIRLMPKEKHRRIHKNVRKLIRLGHTQWLQPQLIEQSL”, “not soluble”; to “MRGFLMFTSGPFDIDFVVLWVDGSDEKWLQKRAIYSSTKQQNNAVRFRDYGIFKYWFRAVAKYAPWVHHVYLVTDEQIPNWLSIQNSKVSVIDHKSIMPEDALPTFNSSAIELNIANIPGLSEHFVYFNDDMFLNRQVTPMDFFSEDGLPKDSAVQNAIMPVEDFDHMTANNVMLINQNFNKYQVLRRHPFRFFNFRYGFLNVLSICLLPWPRFTRFQDPHVPISFRKSVFEKVLNLHRDAWNETSHNRFRNRNDNTIWLIRYYQLVTAQFNPRTPFVGKKYNIGEMKKIVNDINTGKHKMICINDQNVSMAEFDNLTKQLRSTFRSKLPQKSEFEKMAGDPLEHHHHHH”, “not soluble”. Turning to “SSTAGDGERGTVGQEDSAAARPFRFSPEPTLEDIRRLHAEFAAERDWEQFHQPRNLLLALVGEVGELAELFQWKSDTEPGPQAWPPKERAALQEELSDVLIYLVALAARCHVDLPQAVISKMDTNRQRYPVHLSRGSACKYTDLPRGTISENQAVGAGDPASELRDQAST”, the “soluble on expression in E. coli” value is reported as “soluble”.

Consider “MELDVFVGNTTVLDEDIYQLWLDGHSVSDVVRQRMDAGVLLECEASPDVLQSDTIDQFRTFQMCERLLQSPSKVANQLLFQIPSDQQAMLIERYYEFDSVFAREVLGKKLSKGTKKDLDDVSAKTGIALKSCRRQFDNFKRVFKVVEELKGPLVENIQRHFLLSDDLARDYATIVFFANSRFETGKRKLQYLSFQDFAFCAGQLISYWTVGAVDNMIEDMDVDLEKDFLHDLKDLKVLVNDKDLLDQHKSLVCGQLRGKIKVFNEMEASFKNLSRALVNIASKLTHAKDVRDLFIDLVEKFIEPCRSDKWTSGDLRLFLTHYSTSVHTLEAFRHQVIWDRYMGVIKSCILKMYHD”, for which the “soluble on expression in E. coli” value is listed as “soluble”. To “MGSDKIHHHHHHVLETFETVAKAVADPNRVRILKLLESGELCVCQITAVLDLAAATVSKHLSLLKAAGLLQQRREGKWAYYRLADRALNPYAPAFLGLIGATLADDPTLTEDARILSKVNALPLQVLCDQGRAALDLTRPTSPAPSCCGTPMMTETSFNVLFLCTGNSARSILAESILNREGAGKFRAYSAGSHPKGQIDPTVLALLKKTNHPTETLRSKSWDEFAAPGAPTLDFVFTVCDNAAGEVCPIWPGQPMTAHWGVPDPAGFVGSEAEKAAFCGEVMRLLRTRISIFAALPIASLDRLSLQRRLKEIGKVALESRETRESGVL” belongs “not soluble”; to “MSHVSLQEFLKTEPDGTLEVVAEQYNTTLLEVVRNLPSSTVVPGDKFDTVWDTVCEWGNVTTLVHTADVILEFSGELPSGFHRHGYFNLRGKHGMSGHIKAENCTHIALIERKFMGMDTASILFFNKEGSAMLKIFLGRDDHRQLLSEQVSAFHTLAASLKEHA”, “soluble”.

For the sequence “MSLTANREAIDMARVAAGAAAAKLADDVVVIDVSGQLVITDCFVIASGSNERQVNAIVDEVEEKMRQAGYRPARREGAREGRWTLLDYRDIVVHIQHQDDRNFYALDRLWGDCPVVPVDLSANSAGAQEGHHHHHH”, the “soluble on expression in E. coli” value was “soluble”.

Turning to “MGSDKIHHHHHHMLNLTPSAISQSIQKLRVIFPDPLFIRKGQGVTPTAFAMHLHEYISQGLESILGALDIEGSYDKQRTITIATTPSVGALVLPVIYRAIKTHYPQLLLRNPPISDAENQLSQFQTDLIIDNMFCTNRTVQHHVLFTDNMVLICREGNPLLSLEDDRETIDNAAHVLLLPEEQNFSGLRQRVQEMFPDRQINFTSYNILTIAALVANSDMLAIIPSRFYNLFSRCWPLEKLPFPSLNEEQIDFSIHYNKFSLRDPILHGVIDVIRNAF”, the “soluble on expression in E. coli” value is given as “not soluble”. “MGSDKIHHHHHHMSWHNKVVWSEGLFLRPQLFQQQERYLEHYAHRRAATLSPFFFGFSHYSLDSEALALGKVIVKSASGVFADGTPFDTPGSTPPPAPLTIRAEHLDQLIYLAVPVRVPNAEETTFDNAADSLARNFVFDTELRDTNSIGQGPKTVQLSNLRLRLVPEKELTDAWIGLALTRVKTIRADSSIVLDDTLIPPVAGFGASELLTSWLAKIHELTRLRANSLAIRLTGANGNAGTTAEVSDYLLLQTLNRYEPLLQHLRRVPTTSPADLYALLLSMAGELSTYLRTDSRRPLDSHPAYQHSTPHLCLKPLVDDTHVLLNAVLVRSAQSIELKELGHGMRNAVVDPVDMAGFTAVVLAVHAAMPPDLLQQQFAAQAKAGPSERLPDLVRGHLPGITLQALPVPPRQIPFNAGFVYYELARSGPLWDEVARHGGLALHVAGEFPSLKLELWGVRS”: the “soluble on expression in E. coli” value is “not soluble”.

In the case of “MGTYVEPSKLSYGEYLESWFNTKRHSVGIQTAKVLKGYLNSRIIPSLGNIKLAKLTSLHMQNYVNSLRDEGLKRGTIEKIIKVIRNSLEHAIDLELITKNVAAKTKLPKADKEELEHHHHHH”, the “soluble on expression in E. coli” value is “not soluble”.
